Reference: US9616101B2, “Differentiation marker and differentiation control of eye cell” (Kyoto Prefectural Public University Corporation, priority 2012, dated 2017)

Legend:
[1] = test system: human corneal endothelial cell in the confluent state; assay: Cell density of confluent human corneal endothelial cells cultured with R-spondin 1; type: cell-based; details: R-spondin 1 10 ng/ml, 566.8 at addition
From the text: • (Source and culture method): As a human corneal endothelial cell, a corneal endothelial cell was mechanically peeled together with a basal membrane from a cornea for research, purchased from Seattle Eye Bank, and the corneal endothelial cell was peeled and recovered from the basal membrane using collagenase (ROCHE catalog No.: 10 103 586 001), and was subjected to primary culturing. As a medium, for human, Opti-MEM I Reduced-Serum Medium, Liquid (INVITROGEN catalog No.: 31985-070), 8% fetal bovine serum (FES) (BIOWEST, catalog No.: S1820-500), […] CaCl2.2H2O (SIGMA catalog No.: C7902-500G), 0.08% chondroitin sulfate (SIGMA catalog No.: C9819-5G), 20 μg/ml ascorbic acid (SIGMA catalog No.: A4544-25G), 50 μg/ml gentamicin (INVITROGEN catalog No.: 15710-064) and 5 ng/ml EGF (INVITROGEN catalog No.: PHG0311), acclimated for a 3T3 feeder cell, were used.
After subculturing, at the time point where cells reached confluent and were cultured for 2 weeks or longer, and no clear change in the corneal endothelium density was recognized, R-spondin 1 was added into a medium in a concentration of 10 ng/ml, and culture was continued. Observation of cell morphology was performed with a phase contrast microscope, and the cell density was calculated.

[2] = test system: corneal endothelial cell of rabbit sclerocorneal section; assay: Organ culture of rabbit sclerocorneal section with R-spondin 1: Ki67-positive cell rate; type: cell-based, white rabbit; details: control about 1.0%
Procedure: (§1) Eyeballs of white rabbit (Nacalai) euthanized for another object were purchased, and a sclerocorneal section was prepared. The sclerocorneal section was cultured in an incubator at 37° C. for 1 week in DMEM (INVITROGEN, catalog No.: 12320) and 10% fetal bovine serum (FBS) (BIOWEST, catalog No.: 51820-500). […] A corneal endothelial cell was subjected to nuclear staining with DAPI, and the Ki67-positive cell rate was calculated. In addition, a corneal endothelial cell was immunostained with ZO-1, and the cell density was calculated.

[3] = test system: human corneal endothelial cell; assay: Ki67 immunostaining of human corneal endothelial cells incubated with RSPO1 to 4; type: cell-based
From the text: A corneal tissue was embedded with OCT compound (catalog No.: 4583; Sakura Finetek, Tokyo, Japan), and frozen in liquid nitrogen to prepare a frozen corneal tissue section. The frozen block was sliced to 8 μm, applied on a silane-coating slide, and air-dried. For preparing the whole tissue section, a Descemet's membrane containing a corneal endothelial cell was peeled from a corneal tissue, allowed to stand in ice-cooled 100% acetone for 30 seconds, applied on a silane-coating slide, and air-dried. As a cultured corneal endothelial cell, a cell cultured on a LabTek 8-well plastic chamber slide was used. Ice-cooled 100% acetone was added to a corneal tissue and the cultured cell, the resultant was allowed to stand at 4° C. for 15 minutes to fix the cell. After shaking and washing with 0.15% TritonX/PBS-, 1% bovine serum albumin (catalog No.: A4503BSA; Sigma-Aldrich, St. Louis, Mo.) was added, and allowed to stand at room temperature for 30 minutes to perform blocking. A primary antibody was diluted with 1% BSA, and incubated at room temperature for 1 hour. As a primary antibody to be used, anti-rabbit GPR49/LGR5 (catalog No.: GTX71143; 1: 200; GeneTex Inc., San Antonio, Tex.), anti-rabbit Nestin (catalog No.: PRB-570C; 1: 200; COVANCE, Berkeley, Calif.), anti-mouse ABCG2 (catalog No.: NC_236; 1: 2; Kamiya biomedical CO., Seattle, Wash. USA), anti-mouse Ki-67 (catalog No.: 556003; 1: 200 BD Pharmingen™ NJ, USA), anti-rabbit Na^+/K^+ ATPase (catalog No.: A132; 1: 100; Zymed), and anti-rabbit ZO1 (Zymed Laboratries Inc., South San Francisco, Calif.) were used. The resultant was washed with 0.15% Triton/PBS- twice, and PBS- once.
A secondary antibody was diluted with a mixed solution of 1% BSA and 0.15% TrironX/PBS-, and incubated at room temperature for 30 minutes. As a secondary antibody to be used, Alexa™ Fluor 488-labeled (conjugated) goat anti-rabbit IgG (catalog No.: A11034; 1: 1500; Molecular Probe-Invitrogen) and Alexa™ Fluor 488-labeled (conjugated) goat anti-mouse IgG (catalog No.: A11029; 1: 1500; Molecular Probe-Invitrogen) were used. The secondary antibody was shaken and washed with 0.15% Triton/PBS- twice, and PBS- once, subjected to nuclear staining with propidium iodide (catalog No.: SP29004-41; PI; Nacalai Tesque, Inc. Kyoto, Japan), and embedded while covered with a cover glass.
In order to investigate a relationship between R-sporadin 1 (RSPO1), R-spondin 2 (RSPO2), R-spondin 3 (RSPO3), or R-spondin 4 (RSPO4) and differentiation of a corneal endothelial cell, the relationship was studied using RSPO1. Reagents used are as follows. • RSPO1 R&D systems catalog No.: 4645-RS • RSPO2 R&D systems catalog No.: 3266-RS • RSPO3 R&D systems catalog No.: 3500-RS • RSPO4 R&D systems catalog No.: 4575-RS
Then, for the purpose of investigating the influence of RSPO on cell proliferation, RSPO1 to 4 were incubated into a human corneal endothelial cell under conditions of 37° C. and 5% CO2 for 1 day. Thereafter, Ki-67 being a cell proliferation marker was immunostained.

[4] = test system: corneal endothelial cell of rabbit sclerocorneal section; assay: Organ culture of rabbit sclerocorneal section with R-spondin 1: corneal endothelial cell density (ZO-1); type: cell-based, white rabbit; details: control 3674
Procedure: as §1

B1: R-spondin 1: Recombinant Human R-spondin 1 (R&D Cat. 4645-RS); ligand of GPR49/LGR5 (protein, listed as Homo sapiens)
chain: MRLGLCVVALVLSWTHLTISSRGIKGKRQRRISAEGSQACAKGCELCSEVNGCLKCSPKLFILLERNDIRQVGVCLPSCPPGYFDARNPDMNKCIKCKIEHCEACFSHNFCTKCKEGLYLHKGRCYPACPEGSSAANGTMECSSPAQCEMSEWSPWGPCSKKQQLCGFRRGSEERTRRVLHAPVGDHAACSDTKETRRCTVRRVPCPEGQKRRKGGQGRRENANRNLARKESKEAGAGSRRRKGQQQQQQQGTVGPLTSAGPA
B1 was tested, and the “corneal endothelial cell density” value ([1]; 7th day) was “about 695 cells/mm^2”, the “corneal endothelial cell density” value ([1]; after 14 days) was “about 875 cells/mm^2” and the “corneal endothelial cell density” value ([1]; after 21 days, control without R-spondin 1 535.4) was 995.8 cells/mm^2. For the same molecule, the “rate of a Ki67-positive cell” value ([2]; 1 ng/ml R-spondin 1, 1 week) was 4.49%, the “rate of a Ki67-positive cell” value ([2]; 10 ng/ml R-spondin 1, 1 week) was 10.58% and the “rate of a Ki67-positive cell” value ([2]; 100 ng/ml R-spondin 1, 1 week) was 7.94%. The “level of the Ki67(+) cell ratio” value ([3]; 50 ng/ml (FIG. 6C-C), as compared with other RSPOs) was “dramatically increased”, the Ki67 staining ([3]; R-spondin 1 1000 ng/ml (FIG. 11)) was “staining is also observed” and the “Ki67-positive cell rate as compared with a control” value ([3]; RSPO1 50 ng/ml, 500 ng/ml (FIG. 11)) was “increased”. The “proliferation of a human corneal endothelial cell (Ki-67 immunostain)” value ([3]; incubated 1 day, 37° C., 5% CO2) was “statistically significantly promoted proliferation”, the “corneal endothelial cell density” value ([4]; 1 ng/ml R-spondin 1, 1 week) was 4314 cells/mm^2 and the “corneal endothelial cell density” value ([4]; 10 ng/ml R-spondin 1, 1 week) was 4626 cells/mm^2. The “corneal endothelial cell density” value ([4]; 100 ng/ml R-spondin 1, 1 week) was 5037 cells/mm^2.
